Test [1] has as its target [RKH2-AAA]2 single-chain ClpX^ΔN pseudohexamer (Escherichia coli) (UniProt P0A6H1).
Test [2] has as its target E. coli ClpP (residues 1-193 of mature ClpP), tag removed, used for cryo-EM (Escherichia coli). The test can be described thus: cryo-EM structure; ClpX^∆N pseudohexamer 4 µM and ClpP14 1.8 µM (2 µM in the results) in EM buffer (20 mM HEPES, pH 7.5, 100 mM KCl, 25 mM MgCl2, 5 mM ATPγS), 5 min at 25°C before vitrification; doubly capped complexes analysed.

Among the data in publication PMC7112951 are KM for steady-state degradation of ^CP7GFP-ssrA, against the parent pseudohexamer and stoichiometry N values, retold here.

With ^cp7GFP-ssrA, the KM for steady-state degradation of ^CP7GFP-ssrA, against the parent pseudohexamer in test [1] was found to be 3 fold.
With “E. coli ClpP (residues 1-193 of mature ClpP), tag removed, used for cryo-EM (enzyme)”, the stoichiometry N in test [2] turned out to be 14.

In general, stoichiometry N refers to a count of units in the complex or per binding partner.
